Data set [1] deals with Azospirillum brasilense phenylpyruvate decarboxylase (AbPPDC). The conditions noted are these: Spaepen et al., J. Bacteriol., 2007; cited from earlier work.
Substrate in data set [2]: CCCCCCCC(=O)C(=O)O
Briefly: HTP AbPPDC coupled enzyme assay (ADH6/NADPH), 2-ketoacid decarboxylation kinetics, M461L. The data set is classed as biochemical, Azospirillum brasilense. The conditions noted are these: other: pH 6.8, 30° C, 2-ketoacid 0 to 4 mM, Hill equation, mean ± standard error. How it is done: (§1) The evaluation of the AbPPDC variants is performed in two steps using the high-throughput enzyme assay described hereinbelow. Initially, all the variants are tested for activity against a single high concentration (2 mM) of 2-KH and 2-KN (as shown in Table 1). Following the initial evaluation, detailed kinetic analysis is performed on a select number of variants to determine the maximal rate (kcat), substrate concentration yielding half maximal rate (K0.5, equivalent of KM for enzymes following Michaelis-Menten kinetics), and the catalytic efficiency of the enzyme (kcat/K0.5) against 2-KO and 2-KN (as shown in Table 2). AbPPDC variants, having higher specificity (higher kcat/K0.5) for 2-KN, will be efficient in producing octanal and chemicals derived from it inside the cells.
(§2) To evaluate the substrate specificity of the wild type AbPPDC and its variants listed in Table 1, genes of all the proteins are expressed in E. coli cells separately and the protein products are isolated from the cells. The gene sequence of the Azospirillum brasilense phenylpyruvate decarboxylase (GenBank: Accession no. L26240) is downloaded from the NCBI database. Codons of 13 additional amino acids that include six (6) histidines (his) are added upstream of the Met-1 codon of the AbPPDC gene sequence. Such a modification allows expression of a Histidine-tagged AbPPDC having 13 additional amino acids on the N-terminus. The additional amino acids are attached as an aid for purifying the protein in a single step using Ni-NTA chromatography. The entire AbPPDC sequence with 13 additional amino acids (SEQ ID 2) is chemically synthesized and then cloned into the pRSFDuet-1 vector (EMD Biosciences) downstream of the T7 polymerase promoter by Synthetic Genomics, Inc. (San Diego, Calif.). The final vector is sequenced by Synthetic Genomics, Inc. before shipping.
(§3) Genes of the AbPPDC variants listed in Table 1 are either chemically synthesized or generated using New England Biolab's Q5 Site-directed Mutagenesis Kit (cat. no. E0554S) and cloned into the pRSFDuet-1 vector. The pRSFDuet-1 vector containing AbPPDC or the AbPPDC variant gene is transformed into E. coli, AbPPDC or its variant, then expressed and eventually purified, as described below.
(§4) A high-throughput AbPPDC coupled enzyme assay is developed for evaluating the substrate specificity of AbPPDC variants. The assay involves reducing the aldehyde produced from AbPPDC mediated 2-ketoacid decarboxylation, using an alcohol dehydrogenase (ADH6, GenBank: Accession No. NP 014051.3). The initial velocities of the AbPPDC catalyzed reactions are determined from the rates of oxidation of reduced nicotinamide adenine dinucleotide phosphate (NADPH) occurring during the ADH6 catalyzed reduction of aldehyde.
(§5) The HTP screening assay involves incubating 2 mM 2-KH or 2 mM 2-KN with 0.5 mM thiamine diphosphate, 0.35 mM NADPH, 4.7 micrograms (μg) of yeast ADH6 (GenBank: Accession No. NP 014051.3) and 0.3 milligrams per milliliter (mg/mL) bovine serum albumin (BSA) in AbPPDC assay buffer (50 mM 3-(N-morpholino)propanesulfonic acid, pH 6.8, containing 2.5 mM magnesium chloride (MgCl2)) at 30° C. The reaction is started by addition at 30° C. of working enzyme stock containing from 0.5 μg to 3.5 μg of AbPPDC variant diluted in AbPPDC assay buffer containing 1 mg/mL BSA. The plate containing the 200 μL of reaction mixture is centrifuged at 2500×g for 15 sec and the absorbance change of the reaction mixture followed spectrophotometrically at 340 nm on a BioTek™ plate reader, pre-equilibrated at 30° C. Initial velocity of the enzyme reaction is calculated using the rate of NADPH consumption at 340 nm and the extinction coefficient of NADPH (6.22 mM^−1 cm^−1). The activity of all the variants is normalized with the amount of enzyme present in the reaction mixture and expressed as nanomoles per minute per milligram (nmol·min^−1·mg^−1). […]

Substrate in data set [3]: CCCCCCC(=O)C(=O)O
The description is as above. The following applies: other: pH 6.8, 30° C, 2-ketoacid 0 to 4 mM, Hill equation, mean ± standard error. The data set is classed as biochemical, Azospirillum brasilense. How it is done:
as §1, §2, §3, §4, §5

For the molecule `O=C(O)C(=O)Cc1ccccc1` [phenylpyruvic acid], the catalytic efficiency entry in data set [1] is recorded as “high catalytic efficiencies”.

B1: Azospirillum brasilense phenylpyruvate decarboxylase (AbPPDC) variant M461L, SEQ ID 18 (Azospirillum brasilense; M461L) (protein)
chain: MKLAEALLRALKDRGAQAMFGIPGDFALPFFKVAEETQILPLHTLSHEPAVGFAADAAARYSSTLGVAAVTYGAGAFNMVNAVAGAYAEKSPVVVISGAPGTTEGNAGLLLHHQGRTLDTQFQVFKEITVAQARLDDPAKAPAEIARVLGAARALSRPVYLEIPRNMVNAEVEPVGDDPAWPVDRDALAACADEVLAAMRSATSPVLMVCVEVRRYGLEAKVAELAQRLGVPVVTTFMGRGLLADAPTPPLGTYIGVAGDAEITRLVEESDGLFLLGAILSDTNFAVSQRKIDLRKTIHAFDRAVTLGYHTYADIPLAGLVDALLEGLPPSDRTTRGKEPHAYPTGLQADGEPIAPMDIARAVNDRVRAGQEPLLIAADMGDCLFTAMDMIDAGLMAPGYYAGMGFGVPAGIGAQCVSGGKRILTVVGDGAFQMTGWELGNCRRLGIDPIVILFNNASWELLRTFQPESAFNDLDDWRFADMAAGMGGDGVRVRTRAELKAALDKAFATRGRFQLIEAMIPRGVLSDTLARFVQGQKRLHAAPRE
notes: made in house; host or cells: E. coli BL21(DE3)
As for B1, in data set [2], the K0.5 stood at 0.97 ± 0.04 mM; the kcat (usually the number of substrate molecules converted per active site and unit of time at saturation) worked out at 0.467 ± 0.017 s⁻¹; the kcat/Km (usually the second-order rate constant that governs catalysis at low substrate concentration) stood at 483 ± 23.3 M⁻¹ s⁻¹. In data set [3], the K0.5 is 1.4 ± 0.1 mM, the catalytic constant (kcat) was found to be 0.2 ± 0.0083 s⁻¹ and the kcat/Km worked out at 148 ± 12 M⁻¹ s⁻¹.

The record behind these values is US10260060B2, “Genetically modified phenylpyruvate decarboxylase, processes to prepare, and uses thereof” (Dow Global Technologies LLC, priority 2014, dated 2019).
